This data set can be described thus: label from the status in PepcDB records.
Regarding “MLPHYKQQAVIDSGLAAVGFRPENQRIYPNGSLAAHILGAVDIDNFGIAGIEKWIDANWLADLRGAGLALKGRDLQPVELSIDLRVQYAMEQELGKAVKKFGAAAGAGLLLDVTNGEILALASYPAFDPNNPVDAFKPDRINRVTAGVFEMGSTFKALTTAMALESGRFDLESVVDASRPLSFGRQRIHDYRGKYRPLTVPEAFIHSSNIVMAKMAMTLGPEALRTFLGRFGVLSQLATELPESAAPLRPSSWSEVTTATVSFGHGIAVTPLQASMAVAALANGGRLIRPTFIKDSPVSERTIAESLLSANTSEAIRHLLRLNAAVGSATKADVPGYVIGGKTGTAEKVVQGRYSKVLNVTSFMGIVPADNPRYLLLTLLDEPRGLAETYGNRTSGWNAVPLGGALLHRILPMLLKPVFPSPSSAEAVPVATGEPSVDDSSSD”, the protein production result is “failed”. Turning to “MLYLNFPSVSIRLFASDESNTLKRWPVFPRSLRQLVMLAFLLILLPLLVLAWQAWQSLNALSDQAALVNRTTLIDARRSEAMTNAALEMERSYRQYCVLDDPTLAKVYQSQRKRYSEMLDAHAGVLPDDKLYQALRQDLNNLAQLQCNNSGPDAAAAARLEAFASANTEMVQATRTVVFSRGQQLQREIAERGQYFGWQSLVLFLVSLVMVLLFTRMIIGPVKNIERMINRLGEGRSLGNSVSFSGPSELRSVGQRILWLSERLSWLESQRHQFLRHLSHELKTPLASMREGTELLADQVVGPLTPEQKEVVSILDSSSRNLQKLIEQLLDYNRKQADSAVELDNVELAPLVETVVSAHSLPARAKMMHTDVDLKATACLAEPMLLMSVLDNLYSNAVHYGAESGNICLRSSLHGARVYIDVINTGTPIPQEERAMIFEPFFQGSHQRKGAVKGSGLGLSIARDCIRRMQGELYLVDESGQDVCFRIELPSSKNTK”, the protein production entry was “failed”. In the case of “MLVSLLGILLSVIVGFVVTLISTKWVIGLCKKRGFTGKDINKLTKDDVPVLGGIGIVAGFVAGSFTFLLTSYNLSPGIENVVVSILLSSLIIGFLGLLDDIFNISQATRAFLPIFASIPLILYSVGHTIISIPFLGKVNFGILFYIIILPATLTITANAFNMLEGLNGLGAGMGLIMALALAYIGLKSGGTSFYAGIVSIILASVLFGFLIFNFYPAKTFPGNIGTYFIGSVIGSIGISGYMYTALFFLYLPYVIEFVLKAKTRFKGVSFGKIDDQGYLHWDSKPNSLTHIVMRIGKFKEYHIVLIIWGIEILFAILAVVFQTVTITI”, the protein production result is recorded as “failed”.

Take “MFRFNLCVLLFATLATLSAAQEQTPAYVGSAECRDCHTKAAEAWEGSHHAKAWTAPTAENIVADFNDTEFRHDGTLTRFRVEDGRHYITVTEKDGVTTDYPVHSVAGIEPLQQYLLETEPGRIQSFDVVWDTIKQEWFHLYPDQDLPPDDGLHWTGPYKNWNARCAECHATGFEKNYSPVTRSYSSVPVEIGVGCEACHGPGSAHIAWATGKSLEEPLTGLSEYRLTIDYDAGTETVLQQCASCHSRREAHFDGNPVPGIPFNDAYALALLRPGAYHADGQILDEVYVYGSFLQSKMYQQGVSCSNCHEVHSAELKAEGNGVCTQCHSPAGNPSFTTLDSKNYDDPSHHYHEAGTEGAQCKSCHMIERVYMGVDGRRDHSFRIPRPDISLETDSPNACTDCHSDQSSAWAAAAIEEWYPDSENRGLHYGQVLAAGRANAVAARVPLTDLAGDTTQPGIARATALWLLEQSGDATLGAELSSMLTDTDPLVRAAAASAHGLFPPAERAAALEPALDDPRRMVRIAAGKTLLDVPRSALTPSASERLGAALREWQAGLLNRADFPETHIILAGTALTMRNFEGAERAFREVVLMDPQREEAWVMLVRIADAMRGPQAAAQVLDEALQAVPGSDTLNSMRSESLLPPQ”: the protein production entry is “failed”. Next, “MSVASLPSFLCLSQESSRRASARRESPSSPRTWAGWIPVTGTGMRECVVALCLLLTLIFAAASPALAFNPDEVLKDPVLEQRARNLTSQLRCMVCQNQSIDDSNAELARDLRVLVRERLVQGDSDKAVIDYVVSRYGEFVLLKPRLSLRTLLLWGAPIGLTLAGIFAVFVFSRRRATQERPQKLSADEEERIRNLIEK”: “failed”; “PNEKFCFEGFLPQKKGRMTKLKSLVDEHRTMVFYESPHRLLKTLTQFAEYFGPERQVSVSREISKIHEETVRGTLSELIEHFTATDPRGEIVIVLAGIDD”: “not failed”.

On to “MDGVFRLLLGRFIQRGTIIFTTAGGTTFTCGDGTGEQVHARLTSPLAQRRLLLDPELALGEIYMDGGLVMQQGSIADLLAVAMGQPDWTPRWAKLHGLVRYWIRTLHQFNPRSRSRNNVAHHYDLDGRLYALFLDSDKQYSCAYFETPDANLDDAQLAKKRHVAAKLLTTPGQRVLDIGSGWGGLGLYLAETCGADVTGVTLSREQLQAANTRAAERGLADRARFLLQDYRDVPGPFDRIVSVGMFEHVGVDHYDTYFRRCAELLKDDGVMLLHSIGRSEGPGFTNPWIAKYIFPGGYLPALSEVLPAIERAGLLVCDIEILRLHYAETLKAWRERFLAHREEAERLYDARFVRMWEFYLAASEMSFRKQNTMVFQIQLTRRQGVVPITRDYIAAEEKRLRGMEKSRTPRLQLAGE”, for which the protein production result is listed as “failed”. Next, “SKDVLADYKELFRQFSISDIAVWVSTPSFAGVCITEKEFNSKMLPNLESMIFIGEALSKNLTKELMSRFPNTRIINGYGPTEATVGVSVNDMTQKAIDDEK”: “failed”. Take “MDMKTKLQTIIGMFQITAWDETSYFESDNGAKLTQAVITQSYQGVLQGHSEIRYLMSYQDNANATFVGFEHFTGSLGDKKGSFILQHKGLFAAGVASSEFELVERSATGDFVHLVGKGHFVSTENGQANYQITLQDS”: the protein production entry was “not failed”. For “MNWPNMPPGDRRWLWIGLTLPLCLLNGWVLLQILDYFQSPLRIFIIANLVAFILGYPVRWLQRYPRLKLPYAVALVLLTTAIILAVIGLLVIPKLVDQIRTVLQLLPHLNALGDRHLESLDNLSNQWEIPTNFRAWGRELSNEFPNQIRSITNQLINLLIWTAGSLVEAGFIFIMTVYLLLRGQTFWDGIFRWLPIDWRHKVRQRLRHSFQNYYIGQATVAALLGVSLIISLSIFQVPLALLFGMFVGFMAFFPFGGGTSIVLISIIASFQSIWLGIKVLAIATVVDQVVENGLAPKLLGRVTGVHPVWILLSLMIGAKVAGLLGILVAIPIASFIRDMLNDFI” the value was “failed”; for “MESIEQQLTELRTTLRHHEYLYHVMDAPEIPDAEYDRLMRELRELETKHPELITPDSPTQRVGAAPLAAFSQIRHEVPMLSLDNVFDEESFLAFNKRVQDRLKNNEKVTWCCELKLDGLAVSILYENGVLVSAATRGDGTTGEDITSNVRTIRAIPLKLHGENIPARLEVRGEVFLPQAGFEKINEDARRTGGKVFANPRNAAAGSLRQLDPRITAKRPLTFFCYGVGVLEGGELPDTHLGRLLQFKKWGLPVSDRVTLCESAEEVLAFYHKVEEDRPTLGFDIDGVVIKVNSLAQQEQLGFVARAPRWAVAFKFPAQEQMTFVRDVEFQVGRTGAITPVARLEPVHVAGVLVSNATLHNADEIERLGLRIGDKVVIRRAGDVIPQVVNVVLSERPEDTREVVFPTHCPVCGSDVERVEGEAVARCTGGLICGAQRKESLKHFVSRRAMDVDGMGDKIIDQLVEKEYVHTPADLFKLTAGKLTGLERMGPKSAQNVVNALEKAKETTFARFLYALGIREVGEATAAGLAAYFGTLEALEAASIEELQKVPDVGIVVASHVHNFFAEESNRNVISELLAEGVHWPAPIVINAEEIDSPFAGKTVVLTGSLSQMSRDDAKARLVELGAKVAGSVSKKTDLVIAGEAAGSKLAKAQELGIEVIDEAEMLRLLGS”, “not failed”; for “MNNISSNIKKVLFIFLVIFFVTISYITYFELIVSPKIVNNTDNKRLWAKRNEVLRGTIYDRNKKALTKSERVNTLTQKREYTGGAMFSHVLGYVNPQYGLTGLEAKYDQYLMGADDQPINQYLMELIKNKGKVSPEDKRGEDVVTTLDYNIQQQAYNLLGDNKGSVVVLNPKTGEILAMVSKPSYDPNDDALKASWAALNSNPDRPLLNRAVSGLYPPGSTFKTVTAISALENISGIQNETFNDPGQLVFNSTESLRDFGGESFGDIGFKHAYVVSSNVVFGKIGLQLGNNNLRQTAESFYFNKNIPCDGIVIDKSKFPTLKSYEKGNMAQSAIGQASVLATPIQMALVASTVANDGVMMKPHVVNEILSPNGDKIKSIEPESIGNIVSKENAATMKDFMRNVVEDGTGVNAAVEGIQVAGKTGTADHKVNGKDATPHSWFIGFAPYDNPQVAIAVIVEDGGQGGKAAAGIASKVIQTALQK”, “failed”.

With “MGSKPSSLADEVAIIVEQVDKVMGMVFWCPLYWESIELLAKDEVSRAIFYGLTEGCKLDYLKYKTKASMVPEMTRFYS”, the protein production result is reported as “not failed”. For “ETTMPASRSLVDKPVHRFEIIPWNGKKVGYLMYNEFKAGPTTDSQAYNDDLRRAFRDFQTGGVNEFVLDLRYNTGGSLDCAQLLCTMLAPADKMNQLLALLRYSDKRVEANQDLTFNPELIQSGANLNLSTVYVLTTNATRGAAEMVINCLNPYMKVVLIGTKTAGEYVATKPFVHPTDRFILNLVVCNVYNAEEKSDYATGFKPTYEYNEDSYLSTYLPFGNTNETLLNAALKIMSGITDK” the value was “failed”; for “MAQKMTGALVFDERTDRYDIRFDLNSYYGGLHCGECFDVFVRGKWKPTRIEYGDNWYLVGIRAEDLNGLRVRI”, “failed”. For “MIGQFLITFREALEAAIIVAIIIAYLKRTDREEQIRDVWIGVGLSVLASVVLGAIILGLYGGIEEKELFEGIASYLAVIVLTSMIYWMATKGRNIRAEIERKVSKAINPLALVGFTFIVVFREGLETVLFLTPFAIQDLGGTLMGLVSGIIGALILAYLIYGVGMRINLRTFFYYSSILLVFVAAGLAGYGTHELIEWAEEEGMNLGFIEETAYNLGIPEDSVFHHKGVIGSIFAVLFGYSVKMEWGRVIVQFGYLIVTLYLVLRAYGQETPTAKAEK” the value was “failed”. For “MELAAILFSMFFAMNIGASGAAASMGIAYGSEAVKKKFHALLICAAGVLSGAVIGGGNVVKTISSGIIPERVISLEIVCIIIGSAALSLFIANVLGIPLSTSEVTVGSVVGVGVAYQVLYVKSLLVIVSFWVIVPIVAFAFTFAMAKIMKKTIKRPASGKKAKVLAVILLITGFFEAFSAGMNNVANAVGPLVAAHVLTVGEGTLYGGLFVALGALLLGRRVLETNGKKITRFSKGEGIILSGTGAGLVITSSIFGLPVPLAQVTSSSIIGMGMAKNGGNVFHKQVVKTMLKVWVVSPFLSLSLSYMLVSLLLKGDYYALIVVTSVLLASVGTISLMRAVKKEHSSVHEQGGGI”, the protein production result is reported as “failed”.

For “MENVITYNNDKGLLAYIQFLASSAQKIGDGNTDRVFDFEDALDQTQMAQLAVDELKKIPEVNALFSERWLPAPFNLDDLAKLPEGTLGHVYAREMKARGFDPYFYKKVPVVDDISYLKMLWRSTHDIYHVVAGFDTNVFGEIGLQAFFLAQTPIPISVMLLSFGMVMISLYQPTNFKALMTEISRGYRVGSHTPGKLIAQKWDQLWDVQVSEIRERLGVNSIL”, the protein production entry was “not failed”.

For “MPKIRIRKFWPSGAGTVPGVLLIALALGCVGHRAKFADETFSSDEAEIRSAVEPLPPKAQLVYLVLAGELAGQRGRYEVALEHYLQAARLSRDGRLAERAMQIALFIKKYPEAVESVALWLKAEPRHAGARRMATLLYLKEGRRDEAVTQMKVLLTLPDADLENTLIELVKVLGNEVPRQDATEFMDALLRAFPAMADLHFAAALLAANQGEFQQALSETEEALKLHPDWGRARVLQAQVMAQMGDSATAGDLIQRALKRDPDNARLRLIYSQFLIKSGDIEGARRELERIVAKEPGNQDARFGLGLALIDLGRLDAARREFAALAASEKWRVQAYFYLGLIDARKGRLNEALDWFDRVTTGPTEFDARVNGITVLISLGRLTEARTRLADIRRRFPNESVRLYLLEAELLSKNRDYEDAFNLLTDALGENPGQSDLLYARALVAENLGRFDVLEADLRQVLEKSPDDPNALNALGYTLVERGERLDEAKGYLDRAIRLKPDDPAILDSYGWLLYRLRKYAEAIEYLRRAYDKVQDPEIASHLGEVLMESGRRQEARKILREAWKKAPEHEDMQRIRARYPELLAP”, the protein production entry was “failed”.
